Test results as given in US20210380651A1 (SIOLTA THERAPEUTICS, published 2021).

Target: T1, IgE-Fc protein having the amino acid sequence set forth in SEQ ID NO: 5 (murine, UniProt P06336 91-421, glycosylated (fully glycosylated IgE-Fc))
T1 construct: Made in HEK293T cells; also called murine IgE-Fc; single domain IgE-Fc; not shown: TEV-His tag (detected with anti-His antibodies)
T1 sequence: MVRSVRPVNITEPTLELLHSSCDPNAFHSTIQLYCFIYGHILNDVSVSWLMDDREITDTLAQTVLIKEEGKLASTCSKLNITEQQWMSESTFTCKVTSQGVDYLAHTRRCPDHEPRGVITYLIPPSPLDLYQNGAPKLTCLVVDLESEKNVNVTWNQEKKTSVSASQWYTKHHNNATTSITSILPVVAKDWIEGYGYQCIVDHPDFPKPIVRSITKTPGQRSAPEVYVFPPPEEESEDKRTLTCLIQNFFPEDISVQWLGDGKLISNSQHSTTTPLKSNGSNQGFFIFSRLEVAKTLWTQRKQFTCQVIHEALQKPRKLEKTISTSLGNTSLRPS
Test: flow cytometry on RBL-2H3 cells, 30 min, APC anti-His detection
Method: Cells of the histamine-releasing rat cell line RBL-2H3 and human peripheral blood mononuclear cells (PBMCs) were treated with the IgE-Fc protein (purified) having the amino acid sequence set forth in SEQ ID NO: 5 and the IgG-Fc-IgE-Fc fusion protein (unpurified, obtained from cell culture supernatant) having the amino acid sequence set forth in SEQ ID NO: 12 for 30 min. Cells were then thoroughly washed and stained with allophycocyanin (APC) conjugated anti-His antibodies and subsequently analyzed by flow cytometry. Anti-His antibodies detected Fc proteins that were bound to the cell surface due to their specific interaction with Fc epsilon Receptor I (FcεRI) and Fc gamma Receptor IIB (FcγRIIB), respectively. IgG-Fc-IgE-Fc proteins were able to bind to both the rat basophil cell line RBL-2H3 as well as to human PBMCs (comprised about 50-70% […], 10-25% T cells, and 20-30% of cells expressing FcgRIIB), even in very low concentrations in which the IgG-Fc-IgE-Fc fusion protein was present (approximately 0.05 mg/mL) in cell culture supernatants compared to purified and highly concentrated IgE-Fc proteins (approximately 1 mg/mL).

binding result: binds
B1: Fc epsilon Receptor I (FcεRI) on cells of the rat basophil cell line RBL-2H3 (receptor, UniProt P12371 24-245, looked up)
chain: ATQKSVVSLDPPWIRILTGDKVTLICNGNNSSQMNSTKWIHNDSISNVKSSHWVIVSATIQDSGKYICQKQGFYKSKPVYLNVMQEWLLLQSSADVVLDNGSFDIRCRSWKKWKVHKVIYYKDDIAFKYSYDSNNISIRKATFNDSGSYHCTGYLNKVECKSDKFSIAVVKDYTIEYRWLQLIFPSLAVILFAVDTGLWFSTHKQFESILKIQKTGKGKKKG
notes: whole, on cells; the receptor on cells also has beta and gamma chains; also called FceRI; Fc epsilon receptors
